B1: humanized A10 antibody A10/8A7 (antibody, V domains shown)
VH: QIHLVESGGGVVQTGKSMKISCKASGYSFTGYTMHWVKQTPGKNLEWIGLINPYNGGTGYNQKFKGKATLTVDKSSSTTYIELLSLTSEDSAVYYCARTSGYLFAYWGQGTLVTVSS
VL: ETVMTQSPATLSVSPGERATITCKASEDIYNRLAWYQQKPGQAPRLLISGATSLETGVPSRFSGSGSGTEFTLTISSLQSEDVATYYCQQYWSSPLTFGAGTKLEIK
B2: humanized A10 antibody A10/16E8 (antibody, V domains shown)
VH: QVQLVQSGGQVKKPGASVKISCKASGYSFTGYTMHWVKQAPGRGLEWIGLINPYNGGTGYNQKFKGKATLTVDKSSSTTYIELLSLTSEDSAVYYCARTSGYLFAYWGQGTLVTVSS
VL: DIVLTQTPDSLAVSLGERATITCKASEDIYNRLAWYQQKAGQPPKLLISGATSLETGVPDRFSGSGSGTDFTLTISSLQAEDVATYYCQQYWSSPLTFGAGTKVNIK
notes: VH of A10/16E8 (CDRs and flanking FR residues of mA10 grafted onto the human framework 16E8); VL of A10/16E8 (CDRs and flanking FR residues of mA10 grafted onto the human framework 16E8); also called A10/16A8 (as printed once in the discussion); source: Expi293F, transiently transfected, purified (protein G)
B3: mouse anti-ADAMTS13 antibody clone A10 (antibody, V domains shown)
VH: EVQLQQSGPELVKPGTSMKISCKASGYSFTGYTMHWVKQSHGKNLEWIGLINPYNGGTGYNQKFKGKATLTVDKSSSTTYIELLSLTSEDSAVYYCARTSGYLFAYWGQGTLVTVSA
VL: DIQMTQSSSSFSVSLGDRVTITCKASEDIYNRLAWYQQKPGNAPRLLISGATSLETGVPSRFSGSGSGKDYIFSITSLQTEDVATYYCQQYWSSPLTFGAGTKLELK
notes: VH of mA10; mouse heavy chain constant region cloned from the mA10 hybridoma; VL of mA10; mouse light chain constant region cloned from the mA10 hybridoma; Whole mouse IgG; mouse IgG2b served as the negative control, which may hint at IgG2b (surmise); also called mA10; mouse A10; source: Expi293F, transiently transfected, purified (protein G)
B4: human-mouse chimeric A10 (antibody, V domains shown)
VH: B3 VH
VL: B3 VL

Biological target: T1, Recombinant Human ADAMTS13 (Full Length) Protein (Homo sapiens, UniProt Q76LX8)
Test: cell-based or functional assay
Settings: not given

T1 sequence (Q76LX8 75-1427): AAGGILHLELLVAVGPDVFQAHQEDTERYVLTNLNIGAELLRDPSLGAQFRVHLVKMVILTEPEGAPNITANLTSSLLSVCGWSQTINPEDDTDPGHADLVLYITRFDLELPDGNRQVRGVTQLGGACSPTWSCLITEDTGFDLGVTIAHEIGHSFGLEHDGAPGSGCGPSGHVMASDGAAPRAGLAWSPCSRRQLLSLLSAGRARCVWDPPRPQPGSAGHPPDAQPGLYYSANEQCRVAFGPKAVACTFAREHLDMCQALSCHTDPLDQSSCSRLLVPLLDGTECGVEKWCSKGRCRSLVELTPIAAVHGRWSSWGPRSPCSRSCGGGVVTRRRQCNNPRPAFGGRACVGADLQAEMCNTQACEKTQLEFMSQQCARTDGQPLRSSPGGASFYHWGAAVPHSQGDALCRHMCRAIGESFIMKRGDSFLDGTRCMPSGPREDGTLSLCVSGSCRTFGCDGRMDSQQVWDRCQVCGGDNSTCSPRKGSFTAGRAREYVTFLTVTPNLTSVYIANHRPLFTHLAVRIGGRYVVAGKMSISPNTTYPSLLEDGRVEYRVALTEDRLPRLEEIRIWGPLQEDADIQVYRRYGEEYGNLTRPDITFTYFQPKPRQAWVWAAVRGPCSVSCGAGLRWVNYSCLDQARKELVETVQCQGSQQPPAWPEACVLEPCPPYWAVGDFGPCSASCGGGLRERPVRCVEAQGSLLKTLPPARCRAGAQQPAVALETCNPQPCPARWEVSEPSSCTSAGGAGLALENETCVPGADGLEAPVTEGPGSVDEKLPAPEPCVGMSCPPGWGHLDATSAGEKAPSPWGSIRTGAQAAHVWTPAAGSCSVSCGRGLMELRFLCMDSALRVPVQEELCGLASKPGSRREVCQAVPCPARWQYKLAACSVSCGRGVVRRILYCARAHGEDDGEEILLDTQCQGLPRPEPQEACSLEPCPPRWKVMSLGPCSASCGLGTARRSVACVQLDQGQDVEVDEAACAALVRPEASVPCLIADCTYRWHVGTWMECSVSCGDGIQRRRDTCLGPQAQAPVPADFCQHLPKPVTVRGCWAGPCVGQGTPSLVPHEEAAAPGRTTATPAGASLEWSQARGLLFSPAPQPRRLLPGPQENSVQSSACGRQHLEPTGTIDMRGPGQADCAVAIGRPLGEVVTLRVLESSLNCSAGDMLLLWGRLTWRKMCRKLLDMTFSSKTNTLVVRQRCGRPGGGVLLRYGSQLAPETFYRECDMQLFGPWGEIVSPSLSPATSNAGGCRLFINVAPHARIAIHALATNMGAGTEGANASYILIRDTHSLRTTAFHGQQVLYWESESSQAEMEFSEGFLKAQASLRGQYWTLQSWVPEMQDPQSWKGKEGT

First: B1
Second: B2
The “IC50 of inhibition of plasma ADAMTS13 activity on VWF cleavage (chromogenic ELISA, normal pooled plasma, antibody 25 to 0.20 ug/mL)” value of the first is 8.1-fold higher: 7.3 µg/mL for the first, 0.9 µg/mL for the second.

B3 and B4 are within 1.5-fold of each other in “IC50 of inhibition of plasma ADAMTS13 activity on VWF cleavage (chromogenic ELISA, normal pooled plasma, antibody 25 to 0.20 ug/mL)” value: 2.28 µg/mL for the first, 2.3 µg/mL for the second.

Biological target: T1, Recombinant Human ADAMTS13 (Full …)
Test: SPR; Biacore T200; antibodies captured at about 1,000 RU on anti-human or anti-mouse IgG (Fc) on a CM5 chip; ADAMTS13 injected at 80 nM to 0.625 nM in PBS with 0.05% Tween 20; 25 C; 30 uL/min; contact 240 s, dissociation 900 s; 1:1 binding model
Settings: both partners purified

Compared with B1, B2 is 4.1-fold lower in Kd: 20.8 nM for the first, 5.07 nM for the second. The second binds more tightly here.

First: B3
Second: B4
The Kd of the first is 2.1-fold higher: 5.99 nM for the first, 2.8 nM for the second.

Going from B1 to B2, the koff falls from 0.000193 s⁻¹ to 6.3e-05 s⁻¹ (3.1-fold).

Going from B3 to B4, the koff falls from 0.000362 s⁻¹ to 2.03e-05 s⁻¹ (18-fold).

B1 and B2 are within 1.5-fold of each other in kon: 9270 M⁻¹ s⁻¹ for the first, 12400 M⁻¹ s⁻¹ for the second.

Compared with B3, B4 is 8.3-fold lower in kon: 60400 M⁻¹ s⁻¹ for the first, 7270 M⁻¹ s⁻¹ for the second.
